Measurements from publication PMC9719739.

Target: CaV1.2 C-terminal domain, residues 1520-1669 (two channel EF-hand motifs, pre-IQ and IQ-motif) (rabbit) (UniProt P15381)
Experiment: SEC

Chain of UniProt P15381 (P15381 1520-1669): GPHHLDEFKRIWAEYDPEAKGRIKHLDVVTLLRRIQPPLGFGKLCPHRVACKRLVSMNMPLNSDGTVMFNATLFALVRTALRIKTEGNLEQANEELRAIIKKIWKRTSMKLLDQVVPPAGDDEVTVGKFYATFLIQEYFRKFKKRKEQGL

Question: For “Calmodulin (from UniProt P0DP23 1-149) (natural protein)”, which stoichiometry N (CaM per CT(1520-1669) (4:4)) is on record?
Answer: 1
